Laboratory results: patent publication US9540424B2, “Serum albumin binding molecules” (BRISTOL-MYERS SQUIBB COMPANY, priority 2010, dated 2017)

Experiments:
diabetic ob/ob mice [1] = test: HbA1c in diabetic ob/ob mice after 14 days of SABA1-FGF21v1 premixed with HSA; type: in vivo, mouse; conditions: for plasma levels: […] hours after the last dose
Procedure: HbA1c was measured in plasma samples 24 hours after the last dose (see FIG. 19).
SABA1-FGF21v1 plasma levels at the 0.01, 0.1 and 1 mg/kg doses were 3.85, 2.28 and 28.73 ng/ml respectively, 24 hours after the last dose.

HSA = HSA (Homo sapiens, UniProt P02768); test: SPR (Biacore T100) kinetics of FGF21-SABA1 fusions: HSA; type: binding; conditions: flow rate 30 μl/min
Procedure: The binding competency and thermodynamic characterization of FGF21-SABA fusion variants to human serum albumin were performed using Isothermal Titration calorimetry on a Microcal VP-ITC instrument (Microcal Inc. Amherst Mass., USA). […] The detailed experimental conditions are described below.
For the calorimetry assay, the FGF21-SABA variant SABA1-FGF21v1 (SEQ ID NO: 132) was used. […] For the SPR studies, SABA1-FGF21v1 and SABA1-FGF21v3 (SEQ ID NO: 134) were examined.
Serum albumins were dissolved in PBS buffer (10 mM sodium phosphate, 130 mM sodium chloride, pH 7.1) to a concentration of 10 mg/ml, and subsequently diluted to 8-10 μg/ml in 10 mM sodium acetate pH 5.0 for immobilization. Serum albumins were immobilized on a Series S CMS sensor chip using standard ethyl(dimethylaminopropyl) carbodiimide (EDC)/N-hydroxysuccinimide (NHS) chemistry in HBS-EP+ running buffer at 25° C., following general manufacturer guidelines. Flow cell 1 was activated with EDC/NHS and blocked with ethanolamine. […] Kinetic experiments were performed in PBS buffer containing 0.05% tween-20 (running buffer) at either 25° C. or 37° C. […] These samples were injected across flow cells 1-4 for 300 s, with a 420 s dissociation time, at flow rates of 30 μl/min or 60 μl/min to check for mass transfer limitation. All surfaces were regenerated with 2 pulses of 10 mM glycine pH 2.0 at 30 μl/min for 30 s. Raw sensograms were “double-referenced” by subtracting flow cell 1 data from flow cell 2, 3 or 4 data, and then subtracting a separate buffer cycle from each sensogram. The double-referenced sensogram data was fitted to a 1:1 Langmuir model using Biacore T100 Evaluation software version 2.0.2 to determine the association rate constant (ka), the dissociation rate constant (kd), and the equilibrium dissociation constant (KD).

diabetic ob/ob mice [2] = test: Acute and chronic effects of SABA1-FGF21v1 in diabetic ob/ob mice, 3 weeks daily treatment; type: in vivo, mouse
From the text: Additional acute and chronic effects of SABA1-FGF21v1 were examined in the diabetic ob/ob mice. At study termination after 3 weeks of daily treatment, reductions in plasma glucose, insulin and total cholesterol were observed. Plasma alanine aminotransferase was reduced and β-hydroxybutyrate levels were elevated.

[3] = after 3 weeks of daily treatment

B1: SABA1-FGF21v1: SABA1-FGF21 fusion, SEQ ID NO: 132; 293 aa; DNA SEQ ID NO: 184 (protein)
chain: MGVSDVPRDLEVVAATPTSLLISWHSYYEQNSYYRITYGETGGNSPVQEFTVPYSQTTATISGLKPGVDYTITVYAVYGSKYYYPISINYRTEIEKPSQGSGSGSGSGSGSGSPIPDSSPLLQFGGQVRQRYLYTDDAQQTEAHLEIREDGTVGGAADQSPESLLQLKALKPGVIQILGVKTSRFLCQRPDGALYGSLHFDPEACSFRELLLEDGYNVYQSEAHGLPLHLPGNKSPHRDPAPRGPARFLPLPGLPPALPEPPGILAPQPPDVGSSDPLSMVGPSQGRSPSYAS
In the case of B1, the plasma levels (diabetic ob/ob mice [1]; 0.01 mg/kg dose) is reported as 3.85 ng/mL, the “decrease in HbA1c compared to baseline” value (diabetic ob/ob mice [1]; 0.01 mg/kg with HSA 6 mg/kg, s.c. q.d. 14 days) is reported as “no decrease” and the plasma levels (diabetic ob/ob mice [1]; 0.1 mg/kg dose) is reported as 2.28 ng/mL. The “decrease in HbA1c compared to baseline” value (diabetic ob/ob mice [1]; 0.1 mg/kg with HSA 6 mg/kg, s.c. q.d. 14 days, not statistically significant) was 0.39%, the plasma levels (diabetic ob/ob mice [1]; 1 mg/kg dose) was 28.73 ng/mL and the “decrease in HbA1c with respect to baseline” value (diabetic ob/ob mice [1]; 1 mg/kg with HSA 6 mg/kg, s.c. q.d. 14 days) was 0.9%. The “vehicle subtracted decrease in HbA1c” value (diabetic ob/ob mice [1]; 1 mg/kg with HSA 6 mg/kg, s.c. q.d. 14 days, statistically significant) was 0.94%, the “ka” value (HSA; 25° C.) was 3380 M⁻¹ s⁻¹ and the “kd” value (HSA; 25° C.) was 0.000333 s⁻¹. The “ka” value (HSA; 37° C.) was 5960 M⁻¹ s⁻¹, the “kd” value (HSA; 37° C.) was 0.00111 s⁻¹ and the Plasma alanine aminotransferase (diabetic ob/ob mice [2]; [3]) was “reduced”. The β-hydroxybutyrate levels (diabetic ob/ob mice [2]; [3]) was “elevated”, the “oral glucose tolerance test” value (diabetic ob/ob mice [2]; mouse, in vivo, po) was “increased capacity to handle a glucose load” and the “plasma glucose, insulin and total cholesterol” value (diabetic ob/ob mice [2]; study termination after 3 weeks of daily treatment) was “reductions”.
